Laboratory results as given in PMC12669651.

How the values were obtained:
[1] = O-GlcNAc at S296
ROS detection in BMSCs = details: glycan lost; control: wild-type Foxo3
[2] = cycloheximide chase, Western blot, Foxo3-KO BMSCs; details: glycan lost; control: wild-type Foxo3

B1: FOXO3: S296V (protein)
parent chain: MAEAPASPVPLSPLEVELDPEFEPQSRPRSCTWPLQRPELQASPAKPSGETAADSMIPEEDDDEDDEDGGGRASSAMVIGGGVSSTLGSGLLLEDSAMLLAPGGQDLGSGPASAAGALSGGTPTQLQPQQPLPQPQPGAAGGSGQPRKCSSRRNAWGNLSYADLITRAIESSPDKRLTLSQIYEWMVRCVPYFKDKGDSNSSAGWKNSIRHNLSLHSRFMRVQNEGTGKSSWWIINPDGGKSGKAPRRRAVSMDNSNKYTKSRGRAAKKKAALQAAPESADDSPSQLSKWPGSPTSRSSDELDAWTDFRSRTNSNASTVSGRLSPILASTELDDVQDDDGPLSPMLYSSSASLSPSVSKPCTVELPRLTDMAGTMNLNDGLAENLMDDLLDNIALPPSQPSPPGGLMQRGSSFPYTAKSSGLGSPTGSFNSTVFGPSSLNSLRQSPMQTIQENRPATFSSVSHYGNQTLQDLLASDSLSHSDVMMTQSDPLMSQASTAVSAQNARRNVMLRNDPMMSFAAQPTQGSLVNQNLLHHQHQTQGALGGSRALSNSVSNMGLSDSSSLGSAKHQQQSPASQSMQTLSDSLSGSSLYSASANLPVMGHDKFPSDLDLDMFNGSLECDMESIIRSELMDADGLDFNFDSLISTQNVVGLNVGNFTGAKQASSQSWVPG
degradation_or_half_life [1]: decreases, half-life from 24 hours to 12 hours
other: cellular ROS level (ROS detection in BMSCs): increases
degradation_or_half_life, half_life [2]: decreases, 12 vs 24
